The values that follow come from publication PMC3792076, “Elucidation of Substrate Specificity in Aspergillus nidulans UDP-Galactose-4-Epimerase” (PLoS ONE, 2013).

In the assay the target is UDP-galactose-4-epimerase from Aspergillus nidulans (Aspergillus nidulans). The assay is described as follows: crystal structure; microbatch at 277 K, 20% (w/v) PEG3350, 0.1 M Bis-Tris propane pH 7.5, 0.2 M sodium fluoride, grown with 10 mM UDP-glucose; space group C2, three monomers per asymmetric unit (one homodimer and one monomer that forms a dimer through symmetry); 2.8 Å.

The term stoichiometry N denotes the number of molecules, sites or subunits per partner or assembly. In turn, “UDP-galactose-4-epimerase from Aspergillus nidulans (enzyme)” returned a stoichiometry N of 2.
